# Measurements published in the DeepSol protein solubility set.
# Test: soluble on expression in E. coli; label from the status in PepcDB or PDB records
row,Sequence,soluble on expression in E. coli
1,SYYHHHHHHLESTSLYKKAGLKIKAVGAYSAKQPLEPMDITRREPGPNDVKIEIAYCGVCHSDLHQVRSEWAGTVYPCVPGHEIVGRVVAVGDQVEKYAPGDLVGVGCIVDSCKHCEECEDGLENYCDHMTGTYNSPTPDEPGHTLGGYSQQIVVHERYVLRIRHPQEQLAAVAPLLCAGITTYSPLRHWQAGPGKKVGVVGIGGLGHMGIKLAHAMGAHVVAFTTSEAKREAAKALGADEVVNSRNADEMAAHLKSFDFILNTVAAPHNLDDFTTLLKRDGTMTLVGAPATPHKSPEVFNLIMKRRAIAGSMIGGIPETQEMLDFCAEHGIVADIEMIRADQINEAYERMLRGDVKYRFVIDNRTLTD,soluble
2,MSLNRNAILSKRQKQFIERVAWGASYKEVADFFHVSWSTVDNTLRNAKTKLGLSKVTELGAWWFCTNYGISFDLSPIARQCTAGIILFLFSLGEVTTITDASYTMQIVRRTRTEYRIRRHETSIYQPYIINEGHHHHHH,not soluble
3,MADHSIQGKVALIAGGAKNLGGLIARDLAAHGARAIAIHYNSPASKADADATVAALQAAGAQAVALQGDLTTAAAVEKLYADALAAVGRPDIAINTVGKVLKKPFSEISEAEYDEMAAVNAKSAFFFLKEAGRHVNDHGKIVTLVTSLLGAFTPFYSAYAGTKAPVEHYTRAAAKEFGARGISVTAVGPGPMDTPFFYGQESPEAVAYHQSAAALSPHSPTGLTHIEDVVPFIRHLVSDGWWITGQTLLINGGYTTK,not soluble
4,MSLHIIILSPVMPIWDRGVFCSSFTKLCLARGFHITLLDTLSLFPSHSAFCNNSTVEILPFITEKLKKYFKEPSVLVGFSMAGMLVQILAARLPNVQAVLAVNAPGYPDKPLKRQIGCILTFLKNKDLSGALEILNSFMCPRGGREKRVLWEIPDEQKSVAIERMTRGFTFLLGGDARDEIIKYTGKFLALIGEKSQLATLANQTKSQCLNHEYQVISGAGTRLWDDNPAMTNAIVHKWIDAL,not soluble
5,MAHHHHHHMDREDDKKNKFPFTQNNCVVVRSKLDRKNISKMKLSDEQVTANEEITKSVLLKEVNMQDAYDQIGKNANDFSRIYNLFERELLNKSNIKNVYINGIKKNIIVDDGHMKTKVEKKSLKLIDEIHLTYKKRPIILIEKESSNHIINRNNVESFFVHNCLDNSGANRKGTHAASGGGEGAVTGPYNSIPIIYKMFNKKKSIKFSFIENDQISKLTETDWKCVIAVIIKSKESLKDILNEYPFEIPTALFQPFKSFFFMFNDVIIPSDLLTGGNVDIIRLSRDKRKEDYLAVNKFWTNIEKFILQRRDKSCYTRKKKF,not soluble
6,MSLRSEQEMMDIFLDFALNDERIRLVTLEGSRTNRNIPPDNFQDYDISYFVTDVESFKENDQWLEIFGKRIMMQKPEDMELFPPELGNWFSYIILFEDGNKLDLTLIPIREAEDYFANNDGLVKVLLDKDSFINYKVTPNDRQYWIKRPTAREFDDCCNEFWMVSTYVVKGLARNEILFAIDHLNEIVRPNLLRMMAWHIASQKGYSFSMGKNYKFMKRYLSNKEWEELMSTYSVNGYQEMWKSLFTCYALFRKYSKAVSEGLAYKYPDYDEGITKYTEGIYCSVKEGHHHHHH,soluble
7,MGSDKIHHHHHHMIDLHCHTTASDGVVTPSNVIRQASRKGIAVLAIADHDTVNGLDEAAGAAEKEGICLIPAIELSVAFPKGDFHLLGYGIQYKNENFRNKLAQLRTIREERIFRIIERLKRYGLNLTHEDLQNESQGDAPGKAHVARVLVRKRYASNFNVACKTYLNEGMPGYVPKEKLSLESACELINNAGGLSVLAHPKSLNGENHEEYERIIQMCVSHGLAGIEVYASLHDNQDVRLFLELARRHRLIATGGSDFHGDNGACLGYYGHRRPVPESCSQPLLQKISQNKT,not soluble
8,MPSYKLTYFNVRGYGEPARILFHLADVPFEDFRMTIGDGTWENLKAKTPFGQAPVLSVDGFEIPQSAAINRYLAKQFGYAGKTPEEQAWTDAIVDQYKDFMVSIKEVGKASAAGKSAEEVGKIIQSDLVPARDAFFVIINKILEKSKSGFLVGDGLTIADIVIVECITTLDKHQLFTASEQPKLVALREKVYAIPAIKKWVEIRPDTLN,not soluble
9,ELYSALANKCCHVGCTKRSLARFC,soluble
10,MAHHHHHHMECGYSNEGKFHQVVLTIKEKIEKHDLSKWKDIVKPEEGPKYDEYFERLLREGNQEKDKNGKDTEGKDTHEKNTHDEGVHGKDDLSAEQVEKTPSHEYQQTEDEENPKKFQLNKEFFDKINNKEKFYFLLNIKEMMETSWLLAQKRLEGIKVEEKSKSVNVQDLLNYSQKIADTTCAPPECDNINDRIMHQEYYPNYHFLNFVNVEEIHLSKLFQLQKYSTVCFPPIITIQEGKDNMLVLHISCSTPHATIYYKVNDETNEQIYNTDEKPKIRKRKKINVYAWSVKNGHIKSRISCISKSYKVEEDDSFSLSDNFPNKDQGEQPSGFSKTGTECNAPGSKPSQITNVFKNLGFLLSRKKEKTEESSSNGDSSSEA,not soluble
11,MKIGFLGFGKSNRSLLKYLLNHQEAKFFVSEAKTLDGETKKFLEEHSVEYEEGGHTEKLLDCDVVYVSPGIKPDTSMIELLSSRGVKLSTELQFFLDNVDPKKVVGITGTDGKSTATALMYHVLSGRGFKTFLGGNFGTPAVEALEGEYDYYVLEMSSFQLFWSERPYLSNFLVLNISEDHLDWHSSFKEYVDSKLKPAFLQTEGDLFVYNKHIERLRNLEGVRSRKIPFWTDENFATEKELIVRGKKYTLPGNYPYQMRENILAVSVLYMEMFNELESFLELLRDFKPLPHRMEYLGQIDGRHFYNDSKATSTHAVLGALSNFDKVVLIMCGIGKKENYSLFVEKASPKLKHLIMFGEISKELAPFVGKIPHSIVENMEEAFEKAMEVSEKGDVILLSPGGASFDMYENYAKRGEHFREIFKRHGGDEV,soluble
12,MCFSPEDRKKTDHLLALDGAKERLKLFKADLLDEGSFELAIDGCETVFHTASPVAITVKTDPQVELINPAVNGTINVLRTCTKVSSVKRVILTSSMAAVLAPETKLGPNDVVDETFFTNPSFAEERKQWYVLSKTLAEDAAWRFAKDNEIDLIVLNPGLVTGPILQPTLNFSVAVIVELMKGKNPFNTTHHRFVDVRDVALAHVKALETPSANGRYIIDGPVVTIKDIENVLREFFPDLCIADRNEDITELNSVTFNVCLDKVKSLGIIEFTPTETSLRDTVLSLKEKCLV,soluble
13,MSLATAPPFERIETTGLQTLTPRELDELIESVAAVDNPTPLVDDESFLRRVTLDAIGRVPTEQEWKTFMEDPASNKRAKLIDRLLASEEYGANWANYWSDVFSYRTPSPELTFLSYDTPKHWLAEQLNNGVGWDQVSYQMLTGVGKVADNPAAFYVGYHQADVSRLAGESTRIFLGAQIQCAECHDHPFVDIPQERFHQMAAFFVRTKAELPWNDEGHHHHHH,soluble
14,MKEESRAKTGRKPKSDPADYKYSFRLNAGENMRFEKLVTESEAKDKTRFIKKAIFGGTIKVVKIDKATMDYYIRLTEFHRQFQTIGNNYNQVVRAIRSNFGEKRAMSLLYKLEKMTLELMLLTKKVIALTEEYQKKWLQK,not soluble
15,MSLGEIWYGGTIYTMREENEKVDAIYVENGMIVDVGSKKELENRYAAVTLYDLEDKTMIPGLVDSHMHLIGHGERLLRLDLSNCTSYSEVLTLVRKRVEEAPKGSWIIGEGWNENNFTDTKDVHARDLDEISKEHPILLKRVCRHVTWVNSYILQEANITEKAEDPKGGKIGRDSSNMLTGLLYEQGQELIKHVQPEIDEAYLQSALQTAIKDCWQYGLVGGHTEDLNYYGGFRKTHNAFSHVIKEMPFKAHLLVHHEVAQERKEYENEHYIEFGAMKIFSDGSFGGRTALLSEPYEDAKETNGVAIFSREELAELVKKARDLHMPVAIHTIGDLSLEYVIDALELYPPAEGLRDRIIHCQLAREELIERMKNLQAIIDIQPVFVSSDFPSVIEKLGEHRLRYAYAWKTLLEAGLHCNGGSDAPIEQVNPFLGIYSAVTRRSFIDGVCYMPEERLTAYEAVSLFTTGSAYAIGKEEKRGQITKGYEADFTILDRNIFEIEAEEIKEVQAEMTVIDGKVVYRKDAEGHHHHHH,soluble
16,MSVLDISIIIANYNTEEFLRNCLNSIKSTVKNVKYEVIVTDNNSKDDSVTMIKNEFPWVKLIESKINGGFAYANNLAIKESSGKYIFLLNTDTVLLKDVIEKMVNYMDENKDVGLLGPKLLNRDMSHQTSVSGFPSFKREFYHIYKLKNILKIPILKKIIVAMSGKIGSKDVEQYMMNFKSIDEPREVQVLVGAALLVRRNVIDKIGMLDERYFMYYEEIDFCYQANKAGFKAVYYPNGEIIHYIGQAATKSRILEHHHHHH,soluble
17,MGSDKIHHHHHHNSISDSEVHVMVKTFEGHHVNRLEVLKNTWASDVSRIEYCSDKEDPAIPTINLGVDNTDRGHCAKTWEIFRRFLGSSGNGAKWLVVADDDTLMNFKRLKQMLELYDSGDKIIIGERYGYGFSLNGDSGYDYPTGGSGMIFTRSAVESLLAQCPSCIANTDPDDMTIGICALTAGIPIVHESRLHQARPLDYAPEYIKYPISFHKFTDIDPISVYYEYLVELEEYN,not soluble
18,MSLGLHACIDPIAVAHNLEVLRQRLGVGVDGPRIWATVKADAYGHGLHNVLPGLRAADGIAVRHLHEAHQCRRVGWSGPIMVYAGLTHEREAALLTLQQLHLVITDMTQLEWLPGKPLYSCAPWIWLRYIGATRLGGLDASEYRRAYARCRELQQHGALRGVGHLNHYANAASVGDLEREHADFEACIRGLPGPVSTCNSAAACVLPTMAARTDWVRPGLALYGVSPIPGRAGRDLGLRPAMTLRSTLCATQNLPAGASVGYGCTFVADQPMALGLVRCGYGDGYPHNPRASFPVQVDGVLTRTVGRISMDLMAVDLRPIPAAARGAPVVLWGSPQLPVEHIAHAAGTIAAELLTGLTARVPLMRADHAALLREGHHHHHH,soluble
19,MIIATAGHVDHGKTTLLQAITGVNADRLPEEKKRGMTIDLGYAYWPQPDGRVPGFIDVPGHEKFLSNMLAGVGGIDHALLVVACDDGVMAQTREHLAILQLTGNPMLTVALTKADRVDEARVDEVERQVKEVLREYGFAEAKLFITAATEGRGMDALREHLLQLPEREHASQHSFRLAIDRAFTVKGAGLVVTGTALSGEVKVGDSLWLTGVNKPMRVRALHAQNQPTETANAGQRIALNIAGDAEKEQINRGDWLLADVPPEPFTRVIVELQTHTPLTQWQPLHIHHAASHVTGRVSLLEDNLAELVFDTPLWLADNDRLVLRDISARNTLAGARVVMLNPPRRGKRKPEYLQWLASLARAQSDADALSVHLERGAVNLADFAWARQLNGEGMRELLQQPGYIQAGYSLLNAPVAARWQRKILDTLATYHEQHRDEPGPGRERLRRMALPMEDEALVLLLIEKMRESGDIHSHHGWLHLPDHKAGFSEEQQAIWQKAEPLFGDEPWWVRDLAKETGTDEQAMRLTLRQAAQQGIITAIVKDRYYRNDRIVEFANMIRDLDQECGSTCAADFRDRLGVGRKLAIQILEYFDRIGFTRRRGNDHLLRDALLFPEK,soluble
20,MGSDKIHHHHHHMMPAKWDEVRPLLDRFSRDLPTNATVWFMMPDGSYYATAKGGFTDQNLKDCTCFPKLIGGKEVLGELVISRSTGQRSIVVAAPVVADGKVVAAVGVSVDAVKLIEVVESRMTLPENAYIYALDAKTKVTLHRYQARTFKTVFEIGNESLGDTFKKVMHREQGVFNYSLEGKKMNSIFRKSPVHGWYFFIAQQCK,not soluble
21,MNRFSGKSVIVTGSSSGIGRATAVLFAKYGAQVTITGRDAGKLEATKKKMLKVMKNPENVCVVVANLTDSDGQDEIVQSALDAFGRIDVLVNNAGANVVDGTFNTDQSTELYHKTFQINFEAVIEMVKKTKNHLIESKGEIVNVSSVAAGPQALAPSPYYAASKAALDQYTRCVALDLILQGVRVNSVSPGVVTSGFLGAMGMSEQVQKQIEENFTSNRACIPAGVCGKPEDIAELIIFLADRKRSSYIIGQSIVADGGTSLVSGLTAQNIQRNN,not soluble
